Data from patent US20030171279A1.

T1: mouse BAD (murine BAD pro-apoptotic polypeptide)
T1 chain: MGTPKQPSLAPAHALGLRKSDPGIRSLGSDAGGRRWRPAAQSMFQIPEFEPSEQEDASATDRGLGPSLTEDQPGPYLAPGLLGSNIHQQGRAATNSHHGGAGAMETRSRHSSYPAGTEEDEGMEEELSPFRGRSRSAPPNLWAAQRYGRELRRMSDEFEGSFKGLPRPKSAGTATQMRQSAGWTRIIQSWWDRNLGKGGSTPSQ

T2: HSV-1 UL34 protein, P10218
T2 chain: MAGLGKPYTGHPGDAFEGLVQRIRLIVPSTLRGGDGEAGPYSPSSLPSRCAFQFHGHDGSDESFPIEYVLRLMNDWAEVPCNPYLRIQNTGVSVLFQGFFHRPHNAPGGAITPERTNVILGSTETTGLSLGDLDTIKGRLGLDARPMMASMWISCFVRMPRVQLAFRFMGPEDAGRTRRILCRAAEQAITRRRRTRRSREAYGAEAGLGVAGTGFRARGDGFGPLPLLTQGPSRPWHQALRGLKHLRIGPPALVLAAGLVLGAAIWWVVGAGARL

B1: herpes simplex virus 1 (HSV-1) US3 protein kinase (protein)
chain: MACRKFCRVYGGQGRRKEEAVPPETKPSRVFPHGPFYTPAEDACLDSPPPETPKPSHTTPPSEAERLCHLQEILAQMYGNQDYPIEDDPSADAADDVDEDAPDDVAYPEEYAEELFLPGDATGPLIGANDHIPPPCGASPPGIRRRSRDEIGATGFTAEELDAMDREAARAISRGGKPPSTMAKLVTGMGFTIHGALTPGSEGCVFDSSHPDYPQRVIVKAGWYTSTSHEARLLRRLDHPAILPLLDLHVVSGVTCLVLPKYQADLYTYLSRRLNPLGRPQIAAVSRQLLSAVDYIHRQGIIHRDIKTENIFINTPEDICLGDFGAACFVQGSRSSPFPYGIAGTIDTNAPEVLAGDPYTTTVDIWSAGLVIFETAVHNASLFSAPRGPKRGPCDSQITRIIRQAQVHVDEFSPHPESRLTSRYRSRAAGNNRPPYTRPAWTRYYKMDIDVEYLVCKALTFDGALRPSAAELLCLPLFQQK

Tests used:
[1] = biological target: mouse BAD (murine BAD pro-apoptotic polypeptide) (mouse) (UniProt Q61337); experiment: cell-based or functional assay
[2] = biological target: T1, mouse BAD (murine BAD pro-apoptotic …)
[3] = biological target: T2, HSV-1 UL34 protein, P10218

| Molecule | DEVDase activity (fold increase over mock-infected cells) (fold increase) [1] | DNA fragmentation (agarose gel) [2] | cleavage of poly(ADP-ribose) polymerase (Mr 85,000 PARP cleavage product, immunoblot) [2] | electrophoretic mobility and total amount of BAD (immunoblot with anti-BAD antibody) [2] | levels of BAD phosphorylated at ser136, ser155 and ser112 (immunoblot with phospho-specific antibodies) [2] | processing of UL34 protein (apparent Mr 30,000 against 33,000; 32P labelling and UL34 immunoblot) [3] |
| --- | --- | --- | --- | --- | --- | --- |
| herpes simplex virus 1 (HSV-1) US3 protein kinase (from UniProt P04413 1-481) (enzyme) | < 2 | – | – | – | – | – |
| B1 | – | DNA fragmentation was not observed in extracts of Bac-Bad treated cells that had been previously exposed to Bac-US3 | readily detected in mock- or in Bac-WT-infected cells that had been exposed to Bac-Bad, but not in Bac-US3 infected cells that had been exposed to Bac-Bad | migrated more slowly and was significantly reduced in amount relative to those detected in lysates of cells exposed to BAC-WT or mock-infected prior to exposure to Bac-BAD | The levels of BAD phosphorylated at ser136, ser155, and ser112 present in cells mock infected were similar to those present in cells infected with Bac-WT or Bac-US3 | the fully processed UL34 protein was present in cells infected with HSV-1(F) but not cells infected with 120FR or R7041 |
